Data published in patent US20180334496A1.

Target: recombinant human CFD mutant 1 (R157A, R207A), His-tagged (human) (UniProt P00746)
Assay: ELISA

Sequence of recombinant human CFD mutant 1 (R157A, R207A), His-tagged (human) (P00746 26-253 R182A/R232A limits assumed): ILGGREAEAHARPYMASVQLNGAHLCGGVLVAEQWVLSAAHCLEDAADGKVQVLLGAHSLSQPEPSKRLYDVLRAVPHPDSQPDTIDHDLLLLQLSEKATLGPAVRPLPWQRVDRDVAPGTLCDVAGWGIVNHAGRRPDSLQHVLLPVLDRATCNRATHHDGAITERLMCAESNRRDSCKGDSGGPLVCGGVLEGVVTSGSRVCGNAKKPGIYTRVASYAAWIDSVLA

B1: KCD119 (antibody, V domains shown)
VH: EVQLQQSGPELVKPGASVKISCKASGYTFTDYYTNWMRQRHGESLEWIGDINPNTGDTSYNQKFRVKATLTVDKSSGTAYMGLRSLTSEDSAVYYCTREGPSFAYWGQGTLVTVSA
VL: DVLMTQTPLSLPVSLGDQASISCRSSQTIVHSNGDTYLEWYLQKPGQSPNLLIYKVSNRFSGVPDRFSGSGSGTDFTLKISRVEAEDLGVYYCFQGSHVPPTFGGGTTLEIK
- Mut1 Binding (% wt): 13.6 % wt
